# Measurements from US5840673, “Insulin-like growth factor binding protein 3 (IGF-BP3) in treatment of p53-related tumors” (Bristol-Myers Squibb Company).
# B1: IGF-BP3 Box A (dsDNA)
# DNA 1: TCGAGAAAACAAGCCACCAACATGCTTGC
# DNA 2: GCAAGCATGTTGGTGGCTTGTTTTCTCGA
# B2: IGF-BP3 Box B (dsDNA)
# DNA 1: TCGAGAGGAGGGCAAGACCTGCCAAGCCTGGGTA
# DNA 2: TACCCAGGCTTGGCAGGTCTTGCCCTCCTCTCGA
# Biological target: p53 (His-tagged, wild type) (Homo sapiens, UniProt P04637 P04637:1-393)
# Test: EMSA; binding potentiated and supershifted by PAb421
# Conditions: tags: His fusion, baculovirus-produced; chain copies: 4
# Sequence of p53 (His-tagged, wild type) (P04637 whole entry, one chain of several): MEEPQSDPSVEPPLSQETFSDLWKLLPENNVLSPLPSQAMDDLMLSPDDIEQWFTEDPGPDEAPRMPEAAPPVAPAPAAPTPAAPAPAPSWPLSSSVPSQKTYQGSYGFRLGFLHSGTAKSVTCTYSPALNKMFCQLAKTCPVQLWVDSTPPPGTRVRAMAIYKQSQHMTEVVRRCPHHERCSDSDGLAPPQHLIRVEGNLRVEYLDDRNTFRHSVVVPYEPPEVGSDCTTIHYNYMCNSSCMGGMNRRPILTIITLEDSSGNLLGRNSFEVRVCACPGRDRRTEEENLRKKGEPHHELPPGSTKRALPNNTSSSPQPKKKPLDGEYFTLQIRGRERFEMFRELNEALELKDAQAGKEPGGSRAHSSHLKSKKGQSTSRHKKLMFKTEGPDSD
row,Binder,binding result
1,B1,binds
2,B2,binds
